Experimental data from the supplement of paper PMC10126150.
± gives the standard deviation of the averaged measurements.

System: ATP
Experiment: switch fluorescence ratio, 500 uM ATP over buffer (Cy3 cluster intensity, sum of 5 cycles each) (fold (ratio)); higher = stronger signal-on switching upon ATP binding; sequences stand for … in TCGTCGGCAGCGTCAGATGTGTATAAGAGACAGTTTTTTTTTTTTTTTTTTTTTTTTT…TC
Conditions: aptamer strand: ATP DNA aptamer (quencher-CACCTGGGGGAGTATTGCGGAGGAAGG + anchor), 100 nM annealed; ATP concentration: 500 uM
Procedure, shortened: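 For every switch-domain sequence, the fluorescence ratio is the mean of per-cluster values, each being summed target-cycle Cy3 intensity over summed buffer-cycle Cy3 intensity. Clusters outside 100-1000 RFU were excluded. On a modified Illumina MiSeq flow-cell, the Cy3-labelled switching-strand clusters were annealed to 100 nM quencher-labelled ATP aptamer, imaged in selection buffer and then after 15 min with 500 uM ATP at 22 °C. Five such cycles were run, with NaOH stripping and re-annealing between them.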
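Further: ATP exposure 15 min at 22 °C before imaging.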

Row | Sequence | switch fluorescence ratio
1 | CATGGATAGG | 1.011 ± 0.008
2 | GGGGTAATCA | 0.999 ± 0.018
3 | GGGAAAATGT | 1.02 ± 0.038
4 | GGCAGGGGTT | 1 ± 0.023
5 | CTGCGTCTTT | 1.03 ± 0.015
6 | TTGATCGTGC | 1.12 ± 0.18
7 | GTGGGTGGTC | 1.02 ± 0.013
8 | AAGTAGCTAT | 1.01 ± 0.043
9 | AACTAATTTT | 0.9961 ± 0.0024
10 | ATAGCGTATT | 0.998 ± 0.049
11 | TGGTGGTTCT | 0.987 ± 0.029
12 | GTAAAAATTT | 1.06 ± 0.11
13 | TTCTGAGGGG | 1.03 ± 0.035
14 | AAAGTCTTT | 1.02 ± 0.047
15 | CGGGAGGGTC | 1.06 ± 0.012
16 | GGGGAACAGT | 0.979 ± 0.043
17 | ATGGTGGCAG | 0.997 ± 0.054
18 | GTTTTAGGGG | 1.01 ± 0.052
19 | TAGAATCCG | 1.003 ± 0.009
20 | TATATAAATT | 0.985 ± 0.021
21 | TTCTGCGCCC | 2.52 ± 2
22 | GAAAGAGGGA | 1.02 ± 0.079
23 | GATATGCGTC | 1.04 ± 0.0086
24 | TCTTATTGGT | 1.01 ± 0.013
25 | AAGGTCGTCA | 0.9613 ± 0.0023

Row | Sequence | switch fluorescence ratio
26 | ACCATATTTG | 1.04 ± 0.058
27 | TTAGAAAAGA | 1 ± 0.033
28 | GTATGCTTGG | 0.9959 ± 0.0042
29 | TAATGAATTC | 1.003 ± 0.0081
30 | AGCTACCTTC | 1.42 ± 0.041
31 | GCCTGAGAGC | 0.9754 ± 0.0021
32 | TGATGGTGGG | 0.979 ± 0.029
33 | ATTCGTTTTG | 1.03 ± 0.017
34 | TAGTGTTGGG | 0.9837 ± 0.0015
35 | TTTTGTGCGG | 0.98 ± 0.042
36 | GATTAAAGGC | 1.01 ± 0.039
37 | ACAGGGGCGG | 1.008 ± 0.006
38 | GGAAGTTGGG | 0.98 ± 0.023
39 | ACTGGAAGTG | 1.03 ± 0.0039
40 | CAGTTTAGCT | 1.02 ± 0.015
41 | TATTTTATGT | 1.021 ± 0.0042
42 | TGCAGAAAAT | 1.01 ± 0.036
43 | ACAGGATACA | 1.14 ± 0.078
44 | CGTGTGTTTT | 1 ± 0.0068
45 | AAATTTAATC | 1.02 ± 0.034
46 | GTTGTTGTGA | 0.976 ± 0.02
47 | GGATGCAGAT | 0.997 ± 0.0094
48 | TCTGTTTTTT | 0.989 ± 0.01
49 | TTGGTGTTGT | 0.989 ± 0.027
50 | TGGGTGGTGG | 0.983 ± 0.016

Row | Sequence | switch fluorescence ratio
51 | GCGTAAAGGT | 1.014 ± 0.0064
52 | CGATGGGGGG | 0.982 ± 0.06
53 | GGTGGTAGGA | 0.98 ± 0.041
54 | ACCACGTGAC | 1.51 ± 0.035
55 | TTTTTTTGCG | 1.02 ± 0.069
56 | AACCAGGATT | 0.9714 ± 0.0074
57 | TTGACCAATA | 1.12 ± 0.016
58 | CAGGCGGGGA | 1.004 ± 0.0074
59 | TGAAGGTAAC | 0.98 ± 0.012
60 | ACTTGGACGT | 1.05 ± 0.048
61 | AAATTTTTC | 1 ± 0.021
62 | TTAAGAGTCT | 1.02 ± 0.049
63 | CCATGGTACG | 1.051 ± 0.01
64 | CCAAGGTCCT | 1.01 ± 0.014
65 | GTTGTGGCGT | 0.9853 ± 0.0069
66 | CGAATCCAGG | 2.46 ± 0.062
67 | CCTAGGATTC | 1.01 ± 0.043
68 | TGGTCAGCTT | 0.994 ± 0.017
69 | ATTATCTAGG | 0.985 ± 0.013
70 | CGGTAGTATC | 0.982 ± 0.049
71 | TTCAGGGTAT | 1.01 ± 0.037
72 | GGGGATATCG | 1.03 ± 0.024
73 | CAGTTCACCT | 1.082 ± 0.0063
74 | GAAGTATCGG | 0.979 ± 0.024
75 | CACATTACAT | 1.28 ± 0.1

Row | Sequence | switch fluorescence ratio
76 | GACATAGGTT | 1.034 ± 0.008
77 | AATGCTCTTC | 0.973 ± 0.04
78 | TATACCGGCG | 1.05 ± 0.076
79 | CAGAGTAGGG | 0.969 ± 0.049
80 | TCTCCGAGTG | 1.45 ± 0.17
81 | CCAGTGAGTC | 1.07 ± 0.041
82 | GGTTTGGGGG | 0.997 ± 0.023
83 | GCATTGGTCA | 1.027 ± 0.0076
84 | GGTAAAAGTC | 1.01 ± 0.012
85 | CGGTTTTAAG | 1.02 ± 0.018
86 | ACTTTTTGAG | 0.996 ± 0.032
87 | TGCGTCAGGC | 1.09 ± 0.045
88 | AGTTAGACGA | 1.01 ± 0.013
89 | TAGGGAAAGA | 1 ± 0.014
90 | AGAATTTTTG | 0.963 ± 0.075
91 | CATCTAGTGC | 1.045 ± 0.0031
92 | GGGGGCATAA | 1.03 ± 0.076
93 | ACTTCATTTT | 1.02 ± 0.012
94 | GTCAGGCCGG | 1.09 ± 0.15
95 | ATTGATTGTA | 0.995 ± 0.035
96 | TTTATGAGGT | 0.999 ± 0.02
97 | GAGCGGTATC | 0.997 ± 0.043
98 | GAGTCGGCGC | 0.983 ± 0.1
99 | TTGATATTTG | 1.01 ± 0.039
100 | GCACATGAAC | 1.1 ± 0.022

Row | Sequence | switch fluorescence ratio
101 | GTTGGTAAGA | 0.9979 ± 0.0036
102 | GGGGCATGTA | 1 ± 0.019
103 | GCAAGGTAAA | 1.01 ± 0.037
104 | AGTTTGTACG | 1.04 ± 0.024
105 | TTGGAGGTAG | 1 ± 0.037
106 | CTTAGCATTG | 1.03 ± 0.023
107 | TGGGGAGGAT | 0.974 ± 0.023
108 | TCGGGGGGTT | 0.998 ± 0.034
109 | GGGTATGGGC | 0.955 ± 0.014
110 | AGGCGGGGTT | 1.01 ± 0.026
111 | TGGTCGCATT | 1.01 ± 0.034
112 | ATTGGGAATC | 0.9923 ± 0.0027
113 | TAATTTGTCA | 1.008 ± 0.0076
114 | ACGGGGGGGA | 1.03 ± 0.032
115 | GTTGAGGGTT | 0.989 ± 0.049
116 | AAAAGTTACA | 1.027 ± 0.0092
117 | TGGGATGAGT | 1.007 ± 0.0081
118 | GAGGGGCGCC | 0.987 ± 0.016
119 | TCGACTGGGG | 1 ± 0.034
120 | TGTGTGCGCG | 1.02 ± 0.043
121 | TACGGGCGGG | 1.24 ± 0.17
122 | CCTAGTGGGG | 1.04 ± 0.06
123 | TGCGGTAGGT | 0.991 ± 0.018
124 | TAGGTTCCTT | 0.986 ± 0.035
125 | TTTACGGGAT | 1.06 ± 0.036

Row | Sequence | switch fluorescence ratio
126 | TAAGGGAATG | 0.985 ± 0.061
127 | TACGAGTGCG | 1.04 ± 0.06
128 | GTATTTCGGC | 0.994 ± 0.027
129 | TTAAAAGGGA | 1.02 ± 0.07
130 | GATGAATGCT | 0.9814 ± 0.0034
131 | TACTACACAC | 1.406 ± 0.013
132 | GGGGGAATAA | 1.54 ± 0.73
133 | CTCATAGTAG | 0.988 ± 0.016
134 | GGGTTTATCT | 0.986 ± 0.039
135 | TTTTGGTTGC | 1.02 ± 0.032
136 | GGGTATGGAG | 1.02 ± 0.02
137 | AAGTGCGGGC | 1.04 ± 0.027
138 | AGAAGTTTGG | 0.989 ± 0.012
139 | CGGCGGGGGG | 1.08 ± 0.22
140 | CTTGAAGGGG | 0.999 ± 0.036
141 | GGACTTCGCG | 1.01 ± 0.085
142 | TTTCTTGTCA | 0.996 ± 0.059
143 | AAGTACGCTG | 1 ± 0.11
144 | TGTGTTAATA | 0.966 ± 0.013
145 | TTTTAGGTTA | 0.986 ± 0.027
146 | CCGCTACTGT | 2.69 ± 0.39
147 | GAGATTTGGA | 1.03 ± 0.029
148 | CCTCTATTGG | 1.045 ± 0.0041
149 | CGTGGCTGGT | 0.996 ± 0.013
150 | AACAGGTTTT | 1.003 ± 0.0062

Row | Sequence | switch fluorescence ratio
151 | CGTGGTATGG | 0.9976 ± 0.003
152 | GCTGGGGTTA | 0.996 ± 0.019
153 | TGCAATTGGT | 1.01 ± 0.016
154 | GTCCAAGGGT | 1.01 ± 0.035
155 | CGGGAGGTTT | 0.9854 ± 0.0083
156 | CGGGGAGGAA | 1.01 ± 0.072
157 | TTTTTGAACG | 1.02 ± 0.018
158 | GAATTAGGTA | 0.962 ± 0.01
159 | CACTGCCTGC | 1.08 ± 0.036
160 | CCCGGTATAT | 1.22 ± 0.12
161 | ATGCAGGCAC | 1.03 ± 0.024
162 | GATCACGTTG | 0.999 ± 0.022
163 | TTCTCTGTAA | 2.66 ± 1.6
164 | TTTATTCCTT | 1.02 ± 0.018
165 | ATTAGGTCTG | 0.941 ± 0.044
166 | ATGGTGAATG | 0.978 ± 0.017
167 | TAAAAGTTAT | 1.01 ± 0.02
168 | TTGAGCTTCA | 1.115 ± 0.0063
169 | GGTGGTTGTA | 0.919 ± 0.043
170 | AAACACGGTG | 1.19 ± 0.17
171 | GGGTTGTTGC | 1 ± 0.037
172 | TGATGGCGGG | 0.9917 ± 0.0042
173 | AAGGGATTCT | 1.03 ± 0.084
174 | TTCAGGTAAC | 1.054 ± 0.0022
175 | ATGTGAGTTC | 0.985 ± 0.022

Row | Sequence | switch fluorescence ratio
176 | GCGGGATTCG | 0.998 ± 0.059
177 | GAGGAGCTTG | 0.94 ± 0.096
178 | TATTAATTGC | 0.995 ± 0.025
179 | GGGGGCAGAA | 0.983 ± 0.018
180 | GTATAAGCCT | 1.05 ± 0.041
181 | TTTTATTGTT | 1.01 ± 0.034
182 | GGAGTCGGGC | 0.981 ± 0.04
183 | TTCTATTTCT | 0.9872 ± 0.0039
184 | TTACGCATTT | 1.12 ± 0.08
185 | ATTCTTTTTT | 0.997 ± 0.024
186 | ATCGCGTCGT | 0.995 ± 0.035
187 | GGGAATTCGA | 1 ± 0.036
188 | TTAAGTTTGG | 1.01 ± 0.027
189 | TTTTAAATGT | 1.04 ± 0.029
190 | GCTGCTTTTT | 1.01 ± 0.041
191 | AGGGTTATGA | 0.995 ± 0.021
192 | GCTGGGGTCG | 0.9631 ± 0.0029
193 | TTGGTATGGG | 1.03 ± 0.044
194 | AACTAGGGGA | 1.11 ± 0.13
195 | AATTTGTAGG | 1 ± 0.02
196 | TGGGAGGGTA | 0.982 ± 0.022
197 | TGAGTTTTTT | 0.982 ± 0.039
198 | TTTGAGCATT | 1.04 ± 0.043
199 | GGTTTAGGAG | 1.01 ± 0.062
200 | TTCAAAGGTG | 1.41 ± 0.16
